Assay results: the RNAGym collection of RNA variant scans (doi:10.7554/elife.90254)

B1: LINE1-mini (parent)
chain: GGCAGAGCUCAACACAGCGUGGCAAAGUGGCUGUGGCUAGACUGCC

Variants of: B1
Experiment: self-cleavage, relative activity (ratio to wild type); higher = more cleavage; in vitro, sequencing; the parent is a self-cleaving ribozyme

Row | Variant | self-cleavage
1 | GGCAGAGCUCAACACAGCGGGGCAAAGUGCCUGUGGCUAGACUGCC | 0.3
2 | GGCAGAGCUCAACACAGCGGGGCAAAGUGUCUGUGGCUAGACUGCC | 0.47
3 | GGCAGAGCUCAACACAGCGGGGCAAAGUGACUGUGGCUAGACUGCC | 0.66
4 | GGCAGAGCUCAACACAGCGCGGCAAAGUGGCUGUGGCUAGACGGCC | 0.01
5 | GGCAGAGCUCAACACAGCGCGGCAAAGUGGCUGUGGCUAGACCGCC | 0.09
6 | GGCAGAGCUCAACACAGCGCGGCAAAGUGGCUGUGGCUAGACAGCC | 0.05
7 | GGCAGAGCUCAACACAGCGCGGCAAAGUGGCUGUGGCUAGACUCCC | 0.09
8 | GGCAGAGCUCAACACAGCGCGGCAAAGUGGCUGUGGCUAGACUUCC | 0.14
9 | GGCAGAGCUCAACACAGCGCGGCAAAGUGGCUGUGGCUAGACUACC | 0.12
10 | GGCAGAGCUCAACACAGCGGGGCAAAGUGGCUGUGGGUAGACUGCC | 0.07
11 | GGCAGAGCUCAACACAGCGGGGCAAAGUGGCUGUGGAUAGACUGCC | 0.02
12 | GGCAGAGCUCAACACAGCGGGGCAAAGUGGCUGUGGUUAGACUGCC | 0.06
13 | GGCAGAGCUCAACACAGCGCGGCAAAGUGGCCGUGGCUAGACUGCC | 0.05
14 | GGCAGAGCUCAACACAGCGCGGCAAAGUGGCAGUGGCUAGACUGCC | 0.05
15 | GGCAGAGCUCAACACAGCGCGGCAAAGUGGCGGUGGCUAGACUGCC | 0.04
16 | GGCAGAGCUCAACACAGCGGGGCAAACUGGCUGUGGCUAGACUGCC | 0.38
17 | GGCAGAGCUCAACACAGCGGGGCAAAUUGGCUGUGGCUAGACUGCC | 0.25
18 | GGCAGAGCUCAACACAGCGGGGCAAAAUGGCUGUGGCUAGACUGCC | 0.72
19 | GGCAGAGCUCAACACAGCGGGGCAAUGUGGCUGUGGCUAGACUGCC | 0.3
20 | GGCAGAGCUCAACACAGCGGGGCAACGUGGCUGUGGCUAGACUGCC | 0.47
21 | GGCAGAGCUCAACACAGCGGGGCAAGGUGGCUGUGGCUAGACUGCC | 0.43
22 | GGCAGAGCUCAACACAGCGGGGCAAAGUGGCUGUGGCUAGACUGCC | 0.69
23 | GGCAGAGCUCAACACAGCGGGACAAAGUGGCUGUGGCUAGACUGCC | 0.55

Row | Variant | self-cleavage
24 | GGCAGAGCUCAACACAGCGGGCCAAAGUGGCUGUGGCUAGACUGCC | 0.41
25 | GGCAGAGCUCAACACAGCGGGUCAAAGUGGCUGUGGCUAGACUGCC | 0.51
26 | GGCAGAGCUCAACACAGCGGGGCAAAGUGGCUGUGGCUUGACUGCC | 0.56
27 | GGCAGAGCUCAACACAGCGGGGCAAAGUGGCUGUGGCUCGACUGCC | 0.13
28 | GGCAGAGCUCAACACAGCGGGGCAAAGUGGCUGUGGCUGGACUGCC | 0.07
29 | GGCAGAGCUCAACACAGCGGCGCAAAGUGGCUGUGGCUAGACUGCC | 0.46
30 | GGCAGAGCUCAACACAGCGGAGCAAAGUGGCUGUGGCUAGACUGCC | 0.69
31 | GGCAGAGCUCAACACAGCGGUGCAAAGUGGCUGUGGCUAGACUGCC | 0.97
32 | GGCAGAGCUCAACACAGCGGGGCAAAGUGGCUGUGGCUAGACUGGC | 0.25
33 | GGCAGAGCUCAACACAGCGGGGCAAAGUGGCUGUGGCUAGACUGUC | 1.62
34 | GGCAGAGCUCAACACAGCGGGGCAAAGUGGCUGUGGCUAGACUGAC | 0.29
35 | GGCAGAGCUCAACACAGCGCGGCAAAAUGGCUGUGGCUAGACUGCC | 0.78
36 | GGCAGAGCUCAACACAGCGCGGCAAACUGGCUGUGGCUAGACUGCC | 0.28
37 | GGCAGAGCUCAACACAGCGCGGCAAAUUGGCUGUGGCUAGACUGCC | 0.31
38 | GGCAGAGCUCAACACAGCGCGGCAAAGUGGCUGUGGCUAGACUGAC | 0.34
39 | GGCAGAGCUCAACACAGCGCGGCAAAGUGGCUGUGGCUAGACUGUC | 1.12
40 | GGCAGAGCUCAACACAGCGCGGCAAAGUGGCUGUGGCUAGACUGGC | 0.3
41 | GGCAGAGCUCAACACAGCGCGGCAAAGUGGCUCUGGCUAGACUGCC | 0.07
42 | GGCAGAGCUCAACACAGCGCGGCAAAGUGGCUUUGGCUAGACUGCC | 0.14
43 | GGCAGAGCUCAACACAGCGCGGCAAAGUGGCUAUGGCUAGACUGCC | 0.1
44 | GGCAGAGCUCAACACAGCGCGGCAAAGUGGCUGUGCCUAGACUGCC | 0.07
45 | GGCAGAGCUCAACACAGCGCGGCAAAGUGGCUGUGACUAGACUGCC | 0.11
46 | GGCAGAGCUCAACACAGCGCGGCAAAGUGGCUGUGUCUAGACUGCC | 0.15

Row | Variant | self-cleavage
47 | GGCAGAGCUCAACACAGCGCGGCAAAGUGGCUGCGGCUAGACUGCC | 0.18
48 | GGCAGAGCUCAACACAGCGCGGCAAAGUGGCUGAGGCUAGACUGCC | 0.12
49 | GGCAGAGCUCAACACAGCGCGGCAAAGUGGCUGGGGCUAGACUGCC | 0.22
50 | GGCAGAGCUCAACACAGCGGGGCAAAGUGGCUUUGGCUAGACUGCC | 0.08
51 | GGCAGAGCUCAACACAGCGGGGCAAAGUGGCUAUGGCUAGACUGCC | 0.09
52 | GGCAGAGCUCAACACAGCGGGGCAAAGUGGCUCUGGCUAGACUGCC | 0.06
53 | GGCAGAGCUCAACACAGCGCGACAAAGUGGCUGUGGCUAGACUGCC | 0.77
54 | GGCAGAGCUCAACACAGCGCGCCAAAGUGGCUGUGGCUAGACUGCC | 0.19
55 | GGCAGAGCUCAACACAGCGCGUCAAAGUGGCUGUGGCUAGACUGCC | 0.4
56 | GGCAGAGCUCAACACAGCGGGGCAAAGUGGCUGUGGCUAGGCUGCC | 0.19
57 | GGCAGAGCUCAACACAGCGGGGCAAAGUGGCUGUGGCUAGUCUGCC | 0.42
58 | GGCAGAGCUCAACACAGCGGGGCAAAGUGGCUGUGGCUAGCCUGCC | 0.02
59 | GGCAGAGCUCAACACAGCGGGGCAAAGUGGCUGUGGCUAGAAUGCC | 0.1
60 | GGCAGAGCUCAACACAGCGGGGCAAAGUGGCUGUGGCUAGAGUGCC | 0.14
61 | GGCAGAGCUCAACACAGCGGGGCAAAGUGGCUGUGGCUAGAUUGCC | 0.17
62 | GGCAGAGCUCAACACAGCGGGGCAGAGUGGCUGUGGCUAGACUGCC | 0.48
63 | GGCAGAGCUCAACACAGCGGGGCACAGUGGCUGUGGCUAGACUGCC | 0.19
64 | GGCAGAGCUCAACACAGCGGGGCAUAGUGGCUGUGGCUAGACUGCC | 1.21
65 | GGCAGAGCUCAACACAGCGGGGCAAAGUGGCUGUGGCUAGACUGCU | 0.44
66 | GGCAGAGCUCAACACAGCGGGGCAAAGUGGCUGUGGCUAGACUGCA | 0.78
67 | GGCAGAGCUCAACACAGCGGGGCAAAGUGGCUGUGGCUAGACUGCG | 0.45
68 | GGCAGAGCUCAACACAGCGGGGCAAAGUGGAUGUGGCUAGACUGCC | 0.07
69 | GGCAGAGCUCAACACAGCGGGGCAAAGUGGGUGUGGCUAGACUGCC | 0.04

Row | Variant | self-cleavage
70 | GGCAGAGCUCAACACAGCGGGGCAAAGUGGUUGUGGCUAGACUGCC | 0.11
71 | GGCAGAGCUCAACACAGCGCCGCAAAGUGGCUGUGGCUAGACUGCC | 0.39
72 | GGCAGAGCUCAACACAGCGCUGCAAAGUGGCUGUGGCUAGACUGCC | 0.45
73 | GGCAGAGCUCAACACAGCGCAGCAAAGUGGCUGUGGCUAGACUGCC | 0.8
74 | GGCAGAGCUCAACACAGCGCGGCAAAGUGGCUGUGGCUACACUGCC | 0.06
75 | GGCAGAGCUCAACACAGCGCGGCAAAGUGGCUGUGGCUAAACUGCC | 0.09
76 | GGCAGAGCUCAACACAGCGCGGCAAAGUGGCUGUGGCUAUACUGCC | 0.1
77 | GGCAGAGCUCAACACAGCGCGGCAAAGUGGCUGUCGCUAGACUGCC | 0.03
78 | GGCAGAGCUCAACACAGCGCGGCAAAGUGGCUGUUGCUAGACUGCC | 0.1
79 | GGCAGAGCUCAACACAGCGCGGCAAAGUGGCUGUAGCUAGACUGCC | 0.1
80 | GGCAGAGCUCAACACAGCGGGGUAAAGUGGCUGUGGCUAGACUGCC | 0.54
81 | GGCAGAGCUCAACACAGCGGGGGAAAGUGGCUGUGGCUAGACUGCC | 0.38
82 | GGCAGAGCUCAACACAGCGGGGAAAAGUGGCUGUGGCUAGACUGCC | 0.48
83 | GGCAGAGCUCAACACAGCGCGGCAAAGUGGCUGUGGCCAGACUGCC | 0.22
84 | GGCAGAGCUCAACACAGCGCGGCAAAGUGGCUGUGGCGAGACUGCC | 0.01
85 | GGCAGAGCUCAACACAGCGCGGCAAAGUGGCUGUGGCAAGACUGCC | 0.19
86 | GGCAGAGCUCAACACAGCGGGGCGAAGUGGCUGUGGCUAGACUGCC | 0.61
87 | GGCAGAGCUCAACACAGCGGGGCCAAGUGGCUGUGGCUAGACUGCC | 0.28
88 | GGCAGAGCUCAACACAGCGGGGCUAAGUGGCUGUGGCUAGACUGCC | 0.54
89 | GGCAGAGCUCAACACAGCGCGGCAAAGUGUCUGUGGCUAGACUGCC | 0.41
90 | GGCAGAGCUCAACACAGCGCGGCAAAGUGCCUGUGGCUAGACUGCC | 0.98
91 | GGCAGAGCUCAACACAGCGCGGCAAAGUGACUGUGGCUAGACUGCC | 0.45
92 | GGCAGAGCUCAACACAGCGCGGCAAAGUGGCUGUGGCUAGACUGCU | 0.42

Row | Variant | self-cleavage
93 | GGCAGAGCUCAACACAGCGCGGCAAAGUGGCUGUGGCUAGACUGCG | 0.47
94 | GGCAGAGCUCAACACAGCGCGGCAAAGUGGCUGUGGCUAGACUGCA | 0.7
95 | GGCAGAGCUCAACACAGCGCGGCAAAGCGGCUGUGGCUAGACUGCC | 0.54
96 | GGCAGAGCUCAACACAGCGCGGCAAAGAGGCUGUGGCUAGACUGCC | 0.93
97 | GGCAGAGCUCAACACAGCGCGGCAAAGGGGCUGUGGCUAGACUGCC | 0.93
98 | GGCAGAGCUCAACACAGCGCGGCAAAGUUGCUGUGGCUAGACUGCC | 0.4
99 | GGCAGAGCUCAACACAGCGCGGCAAAGUAGCUGUGGCUAGACUGCC | 0.55
100 | GGCAGAGCUCAACACAGCGCGGCAAAGUCGCUGUGGCUAGACUGCC | 0.31
101 | GGCAGAGCUCAACACAGCGGGGCAAAGUCGCUGUGGCUAGACUGCC | 0.35
102 | GGCAGAGCUCAACACAGCGGGGCAAAGUAGCUGUGGCUAGACUGCC | 1.02
103 | GGCAGAGCUCAACACAGCGGGGCAAAGUUGCUGUGGCUAGACUGCC | 0.48
104 | GGCAGAGCUCAACACAGCGCGGCAAAGUGGUUGUGGCUAGACUGCC | 0.39
105 | GGCAGAGCUCAACACAGCGCGGCAAAGUGGGUGUGGCUAGACUGCC | 0.07
106 | GGCAGAGCUCAACACAGCGCGGCAAAGUGGCUGUGGCUAGAGUGCC | 0.04
107 | GGCAGAGCUCAACACAGCGCGGCAAAGUGGCUGUGGCUAGAAUGCC | 0.04
108 | GGCAGAGCUCAACACAGCGCGGCAAAGUGGCUGUGGCUAGAUUGCC | 0.31
109 | GGCAGAGCUCAACACAGCGCGGCAAAGUGGCUGUGGUUAGACUGCC | 0.06
110 | GGCAGAGCUCAACACAGCGCGGCAAAGUGGCUGUGGGUAGACUGCC | 0.23
111 | GGCAGAGCUCAACACAGCGCGGCAAAGUGGCUGUGGAUAGACUGCC | 0.04
112 | GGCAGAGCUCAACACAGCGGGGCAAAGUGGCUGUAGCUAGACUGCC | 0.06
